Reference: a protein production outcome set (Wang et al. 2014)

Test: label from the status in PepcDB records

Row | Sequence | protein production
1 | MPVKTFVFDQIQKLMGWCPACRKMTLQTEQPCNFINTAQISGKTGNIPEFRTSNIIFPANTTLVFVLFYICISLLLRYPEDISLFLAGLFLLNIFYYFLYLKTLEAAVLVDRFGVHMHAFRLKKFEIPFEEIESMKLCRLEKRSKKMSLLLVIGGIALCGFFVYIAVAEGEWKPLLLLVSIIPLLLLVEMKQKMRFWNLNTQLYIKTRHKKLYEWTPYYSLITDEASAEELKSFIERHL | failed
2 | MRYLADHDDLTGLHNRRALLQHLDQRLAPGQPGPVAALFLDLDRLKAINDYLGHAAGDQFIHVFAQRIGDALVGESLIARLGGDEFVLIPASPMSADAAQPLAERLRDQLKDHVAIGGEVLTRTVSIGVASGTPGQHTPSDLLRRADQAALAAKHAGGDSVAIFTLEHHHHHH | failed
3 | MATQARLPLPVGSTTSVSVVIPAKNVAAYVGETLASALAQGEVTEVIVVDDGSTDNTIAIVRAIRDPRLRLMTNDSAGVSAARNLGARHASGEWLLFLDADDRLRPGAVAALLAAARGAPRAVLVYGDYNTIDSEGRQVGRRDLLKGRRKPSGDVLTRLAASNFIVNGGIALARAEAFRAIGGFDTSLRYCEDWHCWCRLAAIGEFEFAPKLLLDYRLHTANTMNAAVRTPQDFFPAIARVFDDGLILARLPEGTAARLRQAAEIHLVTYSAMQAVRFGRYRQAFTYLGMVGRRSLKSLPRSALRVALACFGILEHHHHHH | failed
4 | MIKLSSITAHILDIWHRRNSRSYIAHLRSLGIRIGDGCIFRDPLTTRIDVSRPALVSIGSNVDMNTYFQILTHDWASFVFRNKYHDFVNSSGRVEIGSNIYIGTNVIVLRGVTIGDNCVIGAGSVVTHDIPANSVAVGAPCRVVCSLDEYYQKRKVKGLQEAVEHVKAFQKNFGRDPLPHELYEEFIYFVDASNVEEYERQGVPVRSQLSIAYGDWLSTHKAKFSSYDDFIQYVNQKMNETAES | failed
5 | MNVIGKVTVLPQLPAEIARLSELAYNLYWSWTPRAQALYRDLSPELWERFQHNPVRLLLEADQDRLNAAAQDPAYLGRYAQVMADFDAYMGKKDTWAARHAPQMKPVAYFSMEYAFHESLPIYSGGLGVLAGDHCKSASDLGLPFTAVGMLFSQGYFRQLFDKDGWQNEAYDELDLTTLPIQPAQSAAGEDIRVSVRIAGREVAVKVWTLQVGRVRVLLLDSNVPDNSEDDRKLTARLYGGNQELRVQQYVLLGVAGIRALRALDVPASVYHMNEGHAALMALERMREYVAAGQDFRTAAELAASSTLFTTHTPVAAGNDAFTYELMDKYIGEWPGLLHAGRDELYALARHDQQWDGHTVPAFSMTVFALSMSRAANGVSELHGEVSRGMWNFLYPGAEENEVPIGHVTNGAHNLTFTSQRMRDLLSTVLPEDWTERLEDETMWQAVEQLTEEQLSNVQREMKREMITFVRGRVREQLLRNGASAADVAATDNLLDEGTLTIGFARRFATYKRATLLLRDKPRLAAIVNNPERPVQFVFAGKAHPADNPGKAFIQEIYRTSQEPEFRGKIVILENYDMNVARHLVQGVDIWLNNPRRPLEASGTSGMKASFNGSPNFSVLDGWWREGYDGTNGWPIGEEREYADLNVQDDADAFDLYQRLEHEIAPRYYGHAQGNASWAHTVRDAIETVSPRFSMQRQVLDYVQQYYLPLGQRGTQLADHGGARARDLAAWKAWVRQQWPHTSISAQANLPATARPGEQVTVSAQVNPAGIRPEELRVEAVLKRGDEVQRYPLAPGEGGQYSAEIPLDDSGLYSVGVRMLPLIDGLSNDLEAGLIKWA | failed
6 | MKAVRVHILGSGGREHAIGWAFAKQGYEVHFYPGNAGTKRDGTNHPYEGEKTLKAIPEEDIVIPGSEEFLVEGVSNWRSNVFGPVKEVARLEGSKVYAKRFMKKYGIRTARFEVAETPEELREKIKKFSPPYVIKADGLARGKGVLILDSKEETIEKGSKLIIGELIKGVKGPVVIDEFLAGNELSAMAVVNGRNFVILPFVRDYKRLMDGDRGPNTGGMGSWGPVEIPSDTIKKIEELFDKTLWGVEKEGYAYRGFLYLGLMLHDGDPYILEYNVRLGDPETEVIVTLNPEGFVNAVLEGYRGGKMEPVEPRGFAVDVVLAARGYPDAPEKGKEITLPEEGLIFFAGVAEKDGKLVTNGGRVLHCMGTGETKEEARRKAYELAEKVHFEGKTYRRDIAL | not failed
7 | MSLKYKLIVLDLDGTLTNSKKEISSRNRETLIRIQEQGIRLVLASGRPTYGIVPLANELRMNEFGGFILSYNGGEIINWESKEMMYENVLPNEVVPVLYECARTNHLSILTYDGAEIVTENSLDPYVQKEAFLNKMAIRETNDFLTDITLPVAKCLIVGDAGKLIPVESELCIRLQGKINVFRSEPYFLELVPQGIDKALSLSVLLENIGMTREEVIAIGDGYNDLSMIKFAGMGVAMGNAQEPVKKAADYITLTNDEDGVAEAIERIFNVEGHHHHHH | not failed
8 | MYSGFTREKSDLRTEDVEITKEPFTLLIMGIEDYATDGQNGRTDSLMFATVNPKTQKISLMSIPRDSRVPIVGKNKEDKINAAHAYGGEEMAIKTVEGFLKVPVDHYVKIDFQGFKGIVDAVGGVTVDVPFDFWERSDVDYYKKIQFKQGQQELNGEEALAYVRMRKQDPNGDYGRAARQRQLLAAVAQKLNSTSTVFKIKDLTSVVGKYIKTDIPISDGLALYKKLSGFDPSTIQTLKLEGEDKKIGGIYYFLPDPNGVEAVRNEIKKELGLEHHHHHH | not failed
9 | MSVIATILAYAGLAIVSTVVVWKGSELLESSTEKLSGYYQLPPLVQGSIVLAVGSSFPELSTAVLSAALHGDFELGVAAVVGSALFNILMIPALAGLWAEERLESTRDLIYKETQFYLISIVVLLLMFSFAVIYNPLAGGTDAQVGGVTRGLALLPLALYAVYVYLQYQDTRDHQPEAPPEDIHLPKQGTRLVGSLLIILIGVEGLIRSAVAFGDIFGTPSFLWGITVVAAGTSVPDAFVSIRASRAGNPVTSVANVLGSNIFDLLVCIPAAALVAGTVAINYSVGMPMMGVLSLATLIVLLTMRSEMVLTTPEAWGLIALYLAFVVWMGAETVGTVDLIPHLPPPAHTP | failed
10 | EALQGLLGAGWWELCPDTAEILLASRLAASLHLPEDGARLNVQAWLELIHPADRGELSSRLQELKLGKPLLLNVRLHEPDPSAPQRWYRLQGQALGRGESQRLVGFMLDISD | failed
11 | MKKTLILGATPETNRYAYLAAERLKSHGHEFIPVGRKKGEVLGKTIINERPVIEGVDTVTLYINPQNQLSEYNYILSLKPKRVIFNPGTENEELEEILSENGIEPVIGCTLVMLSAGT | failed
12 | MTDQTKPSWTADRGADLLGALFFLTRLPTPTTHTPPPFTRAVWAFPLAGALVGLIGALAVGGAQALGLSPTLAALLGVSVMALVTGAMHEDAVADIADGFGGGRTRERVLEIMRDSRVGAFGVTALVLVLALRVAALAALAGGPWAMAALVCAAGLGRGAAVLMLGLLPPARTDGLGASFGRPQQASLAFALILCLVLAVVLLPGAAPAVALVGMVAPTLYLAWRAKVRIGGQTGDVAGAAALIGETLALVGLSAMLGAAP | failed
13 | MASSVILREDGFAPPKPSPTTHEKASTKGDRDGVECKNSDSEEECLVKKTVAAHTDYIYTQDLNLSP | failed
14 | MNQPASAYFMDERKDPVETHTLSVLVQNEPGVLARVIGLFSGRGYNIESLTVSETEAQKHVSRITIVTTGTLAVIQQIKHQLDRMVPVYRVVDMTLSGRSIERELAMVKLRGVGEHRVEALRLAEAFRARVIDATIESFVFEITGNSAKINQFIDLMRPLGLVEVSRTGVAAIGRGPEGM | failed
15 | MNESSTHDSVADDPTEVSTDTVLDIALSLFSELGFSDAKLEAIAKKSGMSKRMIHYHFGDKRGLYICCLEEAVRRLRPTAEEMYLASAVPVEGVRTIVEAVFHRYVQHPEAVRMLQMENLHHYGKVAEASPLSDQSAITLQLDRLLMLGQDAGAFRPGISAQDVFTLIASIAVFRINSRSTTLNLYGIDMMNGDNTDGMRRMAVDTVLAFLTSNLKSADEDSYLSRPLLSTVTEHVDEEGSYEVAADPFS | not failed
16 | MVWLAVFLAVLGAFFLAIGAQRQGSAVKADTGGLALSSNGFLRLLRNPRWMLGLLFLALGMVMNAVALVSAPLTVVQPIGAIALVITTVVNAKDQGLSINRATVVAISACVTGSALFVLLAVNVTQENHHVNTEDELTIVLLLALAVGIFGTLAVVFRHRMSAFVYILGAGVLFGFVAVLTRIIGKHLLDPNGLFLLNVQWYTLIAIVAAGGLGSWFVQSAYSGGPPDLVIAGLTVIDPMVGIAIGIVILGELRPDVHAVMAIAMAAAATLAIVGVIALSRHHPEVTKRKKDAKAAASRKA | failed
17 | MPVGIIGHYRCGEHNMGEHHPENGKRLTAISDQLIRSGLDYVVRQFDSKPIDKSLLALAHTQEHIDFVFDNAPNEGEENFTVGEDSVMNEKTLTSIMYSAGAAVDAVDLVMEGTLGAAFCATRPPGHHAEHDKGMGFCFFNNVAVAAAYAKQKYGLKRVAIVDFDVHHGNGTEDIITNHFNATPEDDKGYLFCSSYQYPLYPFEIQESDTPPIINTPLAATTKGEQFREKLTAHWLPALHKFKPELILISAGFDAHIEDEMSHVSLTEADYRWITDELKIIAEEYGKGRIVSVLEGGYAPSALGRSVVAHVNGLIGN | failed
18 | RSTRQQAGREAEAFALQFLQQQGLRLIEQNWLCKRGELDLVMLDGDTVVFVEVRYRRHCGWGGAVESVDFRKQGKLVTAAQLFLQQVSCWADYPCRFDVIAIEGSPGSFD | failed
19 | MGVIVPGNSSPVPALSAGRSTVEGYDPKLHDPFFDGVSQQLADKGFITAAADDLITWARTGSLMWMTFGLACCAVEMMQASMPRYDLERYGFAPRASPRQSDVMIVAGTLTNKMAPALRKVYDQMPEPRYVISMGSCANGGGYYYYSYSVVRGCDRVVPVDIYVPGCPPTAEALVYGVLQLQKKIRRTGTIER | failed
20 | MIELRNELPGGEVHAAWHLRYAGHDFFVKCDEREMLRGFTAEADQLELLSRSKTVVVPKVWAVGSDRDYSFLVMDYLSPRPLDAHNAFILGQQLARLHQWSDQPQFGLDFDNALSTTPQPNTWQRRWSTFFAEQRIGWQLELAAEKGITFGNIDAIVEHVQQRLASHQPQPSLLHGDLWSANCALGPDGPYIFDPACYWGDRECDLAMLPLHTDQPPQIYDGYQSVSPLPLDFLDRQPIYQLYTLLNRARLFGGQHLATAQKAMDRLLAVLEHHHHHH | failed
21 | MKIGVYGASGRIGKLLLEELKGGYKGLALSSVFVRQKCETDFSSFSHAPLVTNDLKAFVRACECVIDFSLPKGVDNLLEALLECPKILVSGTTGLEKETLEKMQQLALKAPLLHAHNMSIGIMMLNQLAFLTSLKLKDADIEIIETHHNLKKDIPSGTALSLYETCAKARGYDEKNALITHREGLRSKESIGIAALRGGDVAGKHTIGFYLEGEYIELSHTATNRSIFAKGALEVALWLKDKAAKKYEINEMFG | failed
22 | MTVTDHILPTATNGRPPGLIIAAPSTNSGKTTVTLALHAALRRRSLTVQPYKCGPDYIDPAFHEIAAGRPCYNLDSWAFGQDRITYLLDAAAGADLCLAEGVMGLFDGGSARGAWGNGATADIAAFTGWPVVLVIDVAGQAQSAAALALGFARYRSDVRIAGVILNNVASARHEALVRDGFAAQDIPVLGGFERQRDLTLKNRHLGLVQARETARLDIRLQQLADSAVRGIDLDALIRAAQPARPIASTIRPLTPPGQRIALAHDDAFSFIYPHLTAGWRAAGAEIVPFSPLNDEGPDPSCDAAWLPGGYPELHAGRLAAATRFKAALGAFAETRAVHGECGGYMTLGAGLIDADGTRHAMAGLLGLETDFASRKLHLGYRLATLHADAAGKAAGSVLRGHEYHYARVVTVADEPLAEIRDPAGQLTDETGSRRGHVTGTFFHLIDVAEEAIALEHHHHHH | failed
